For 16 molecules, Kd results are on record in patent US20260216326A1 (PROMETHEUS BIOSCIENCES, published 2026).

This experiment addresses T1, human TL1A (Fitzgerald #30R-AT070) (human, UniProt O95150 72-251, limits assumed).
T1 construct: Coated on the ELISA plate at 1 ug/mL; also called TNFSF15
T1 sequence (looked up): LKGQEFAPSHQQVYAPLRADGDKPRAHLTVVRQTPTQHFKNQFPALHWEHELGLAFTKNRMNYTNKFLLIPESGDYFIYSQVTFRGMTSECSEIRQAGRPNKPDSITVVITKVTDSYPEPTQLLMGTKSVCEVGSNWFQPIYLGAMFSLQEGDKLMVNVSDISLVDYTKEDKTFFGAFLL
In words: ELISA titration, coated human TL1A, culture supernatant.

B1: A98 (antibody, human IgG1, V domains shown)
VH: QVQLVQSGAEVKKPGASVKVSCKASGFDIQDTYMHWVRQAPGQGLEWMGRIEPASGHIKYDPKFQVRATMTRDTSTSTVYMELSSLRSEDTAVYYCARSGGLPDWWGQGTTVTVSS
VL: EIVLTQSPGTLSLSPGERATLSCRASSSVSYMYWYQQKPGQAPRLLIYATSNLASGIPDRFSGSGSGTDFTLTISRLEPEDFAVYYCQQWEGNPRTFGGGTKLEIK
notes: human IgG1/kappa (pFuse vectors), culture supernatant
As to B1, the Kd – broadly, the constant that tells how readily two partners part at equilibrium – was 140 pM.

B2: A102 (antibody, human IgG1, V domains shown)
VH: QVQLVQSGAEVKKPGASVKVSCKASGFDIQDTYMHWVKQRPGQGLEWIGRIDPASGHTKYDPKFQVRVTITTDTSTSTAYLELSSLRSEDTAVYYCARSGGLPDVWGQGTTVTVSS
VL: EIVLTQSPGTLSLSPGERATLSCRASSSVSYMYWYQQKPGQAPRLLIYATSNLASGIPDRFSGSGSGTDFTLTISRLEPEDFAVYYCQQWKGNPRTFGGGTKLEIK
notes: as for B1
In turn, B2 had a dissociation constant (Kd) of 104 pM.

B3: A113 (antibody, human IgG1, V domains shown)
VH: QVQLVQSGAEVKKPGASVKVSCKASGFDIQDTYMHWVRQAPGQGLEWMGRIEPASGHIKYDPKFQVRATITRDTSTSTVYMELSSLRSEDTAVYYCARSGGLPDWWGQGTTVTVSS
VL: EIVLTQSPGTLSLSPGERATLSCRASSSVSYMYWYQQKPGQAPRPWIYATSNLASGIPDRFSGSGSGTDFTLTISRLEPEDFAVYYCQQWEGNPRTFGGGTKLEIK
notes: as for B1
The molecule B3 displayed an equilibrium dissociation constant (Kd) of 50 pM.

B4: A99 (antibody, human IgG1, V domains shown)
VH: QVQLVQSGAEVKKPGASVKVSCKASGFDIQDTYMHWVRQAPGQGLEWMGRIEPASGHIKYDPKFQVRVTITRDTSTSTVYMELSSLRSEDTAVYYCARSGGLPDWWGQGTTVTVSS
VL: EIVLTQSPGTLSLSPGERATLSCRASSSVSYMYWYQQKPGQAPRLLIYATSNLASGIPDRFSGSGSGTDFTLTISRLEPEDFAVYYCQQWEGNPRTFGGGTKLEIK
notes: as for B1
The molecule B4 gave a Kd of 102 pM.

B5: A105 (antibody, human IgG1, V domains shown)
VH: QVQLVQSGAEVKKPGASVKVSCKASGFDIQDTYMHWVKQRPGQGLEWIGRIDPASGHTKYDPKFQVRATITTDTSTSTVYMELSSLRSEDTAVYYCARSGGLPDVWGQGTTVTVSS
VL: EIVLTQSPGTLSLSPGERATLSCRASSSVSYMYWYQQKPGQAPRLLIYATSNLASGIPDRFSGSGSGTDFTLTISRLEPEDFAVYYCQQWKGNPRTFGGGTKLEIK
notes: as for B1
With B5, the affinity, expressed as Kd, was 110 pM.

B6: A100 (antibody, human IgG1, V domains shown)
VH: QVQLVQSGAEVKKPGASVKVSCKASGFDIQDTYMHWVRQRPGQGLEWIGRIDPASGHTKYDPKFQVRATITTDTSTSTAYLELSSLRSEDTAVYYCARSGGLPDVWGQGTTVTVSS
VL: EIVLTQSPGTLSLSPGERATLSCRASSSVSYMYWYQQKPGQAPRLLIYATSNLASGIPDRFSGSGSGTDFTLTISRLEPEDFAVYYCQQWKGNPRTFGGGTKLEIK
notes: as for B1
The molecule B6 yielded a Kd of 84 pM.

B7: A103 (antibody, human IgG1, V domains shown)
VH: QVQLVQSGAEVKKPGASVKVSCKASGFDIQDTYMHWVKQRPGQGLEWIGRIDPASGHTKYDPKFQVRVTITRDTSTSTAYLELSSLRSEDTAVYYCARSGGLPDVWGQGTTVTVSS
VL: EIVLTQSPGTLSLSPGERATLSCRASSSVSYMYWYQQKPGQAPRLLIYATSNLASGIPDRFSGSGSGTDFTLTISRLEPEDFAVYYCQQWKGNPRTFGGGTKLEIK
notes: as for B1
In turn, B7 displayed a Kd of 107 pM.

B8: A107 (antibody, human IgG1, V domains shown)
VH: QVQLVQSGAEVKKPGASVKVSCKASGFDIQDTYMHWVKQRPGQGLEWIGRIDPASGHTKYDPKFQVRATITTDTSTSTAYLELSSLRSEDTAVYYCARSGGLPDVWGQGTTVTVSS
VL: EIVLTQSPGTLSLSPGERATLSCRASSSVSYMYWYQQKPGQAPRLLIYATSNLASGIPDRFSGSGSGTDFTLTISRLEPEDFAVYYCQQWEGNPRTFGGGTKLEIK
notes: as for B1
Molecule B8 displayed a Kd of 71 pM. This Kd is about 1.5-fold lower than that of the molecule before.

B9: A114 (antibody, human IgG1, V domains shown)
VH: QVQLVQSGAEVKKPGASVKVSCKASGFDIQDTYMHWVRQAPGQGLEWMGRIEPASGHIKYDPKFQVRVTMTRDTSTSTVYMELSSLRSEDTAVYYCARSGGLPDWWGQGTTVTVSS
VL: EIVLTQSPGTLSLSPGERATLSCRASSSVSYMYWYQQKPGQAPRPWIYATSNLASGIPDRFSGSGSGTDFTLTISRLEPEDFAVYYCQQWEGNPRTFGGGTKLEIK
notes: as for B1
B9 registered a dissociation constant (Kd) of 51 pM.

B10: A110 (antibody, human IgG1, V domains shown)
VH: QVQLVQSGAEVKKPGASVKVSCKASGFDIQDTYMHWVKQAPGQGLEWMGRIEPASGHIKYDPKFQGRVTMTRDTSTSTVYMELSSLRSEDTAVYYCARSGGLPDWWGQGTTVTVSS
VL: EIVLTQSPGTLSLSPGERATLSCRASSSVSYMYWYQQKPGQAPRPWIYATSNLASGIPDRFSGSGSGTDFTLTISRLEPEDFAVYYCQQWEGNPRTFGGGTKLEIK
notes: as for B1
With B10, the Kd amounted to 56 pM.

B11: A104 (antibody, human IgG1, V domains shown)
VH: QVQLVQSGAEVKKPGASVKVSCKASGFDIQDTYMHWVRQAPGQGLEWIGRIDPASGHTKYDPKFQVRATITTDTSTSTAYLELSSLRSEDTAVYYCARSGGLPDVWGQGTTVTVSS
VL: EIVLTQSPGTLSLSPGERATLSCRASSSVSYMYWYQQKPGQAPRLLIYATSNLASGIPDRFSGSGSGTDFTLTISRLEPEDFAVYYCQQWKGNPRTFGGGTKLEIK
notes: as for B1
On to B11, for which the Kd was 108 pM.

B12: A108 (antibody, human IgG1, V domains shown)
VH: EVQLVQSGAEVKKPGASVKVSCKASGFDIQDTYMHWVRQAPGQGLEWMGRIEPASGHIKYDPKFQGRVTMTRDTSTSTVYMELSSLRSEDTAVYYCARSGGLPDWWGQGTTVTVSS
VL: EIVLTQSPGTLSLSPGERATLSCRASSSVSYMYWYQQKPGQAPRPWIYATSNLASGIPDRFSGSGSGTDFTLTISRLEPEDFAVYYCQQWEGNPRTFGGGTKLEIK
notes: as for B1
On to B12, for which the Kd was 55 pM.

B13: A112 (antibody, human IgG1, V domains shown)
VH: QVQLVQSGAEVKKPGASVKVSCKASGFDIQDTYMHWVKQRPGQGLEWMGRIEPASGHIKYDPKFQGRVTMTRDTSTSTVYMELSSLRSEDTAVYYCARSGGLPDWWGQGTTVTVSS
VL: EIVLTQSPGTLSLSPGERATLSCRASSSVSYMYWYQQKPGQAPRPWIYATSNLASGIPDRFSGSGSGTDFTLTISRLEPEDFAVYYCQQWEGNPRTFGGGTKLEIK
notes: as for B1
The molecule B13 registered a Kd of 54 pM. The Kd values of the last two molecules are within 1.5-fold of each other.

B14: A101 (antibody, human IgG1, V domains shown)
VH: QVQLVQSGAEVKKPGASVKVSCKASGFDIQDTYMHWVKQRPGQGLEWMGRIDPASGHTKYDPKFQVRATITTDTSTSTAYLELSSLRSEDTAVYYCARSGGLPDVWGQGTTVTVSS
VL: EIVLTQSPGTLSLSPGERATLSCRASSSVSYMYWYQQKPGQAPRLLIYATSNLASGIPDRFSGSGSGTDFTLTISRLEPEDFAVYYCQQWKGNPRTFGGGTKLEIK
notes: as for B1
B14 returned a Kd of 96 pM.

B15: A111 (antibody, human IgG1, V domains shown)
VH: QVQLVQSGAEVKKPGASVKVSCKASGFDIQDTYMHWVRQRPGQGLEWMGRIEPASGHIKYDPKFQGRVTMTRDTSTSTVYMELSSLRSEDTAVYYCARSGGLPDWWGQGTTVTVSS
VL: EIVLTQSPGTLSLSPGERATLSCRASSSVSYMYWYQQKPGQAPRPWIYATSNLASGIPDRFSGSGSGTDFTLTISRLEPEDFAVYYCQQWEGNPRTFGGGTKLEIK
notes: as for B1
With B15, the affinity, expressed as Kd, was 68 pM.

B16: A109 (antibody, human IgG1, V domains shown)
VH: QVQLVQSGAEVKKPGASVKVSCKASGFDIQDTYMHWVRQAPGQGLEWMGRIEPASGHIKYDPKFQGRVTMTRDTSTSTAYMELSSLRSEDTAVYYCARSGGLPDWWGQGTTVTVSS
VL: EIVLTQSPGTLSLSPGERATLSCRASSSVSYMYWYQQKPGQAPRPWIYATSNLASGIPDRFSGSGSGTDFTLTISRLEPEDFAVYYCQQWEGNPRTFGGGTKLEIK
notes: as for B1
B16 showed a Kd of 50 pM.
